Legend:
[1] = target: biotinylated SE36 (Plasmodium falciparum (Honduras-1)); assay: SPR; Biacore T200, chip SA; biotinylated SE36 immobilized at 200 RU via streptavidin; purified VTN 1.25-20 μg/mL (~17.9-285.7 nM) flowed at 20 μL/min, 25 °C, PBS with 0.05% Tween 20; fitted to 1:1 binding and bivalent analyte models
SERA5 SE36 = target: T1, SERA5 SE36 (Plasmodium falciparum, UniProt Q9TY95); assay: SPR
T1 chain: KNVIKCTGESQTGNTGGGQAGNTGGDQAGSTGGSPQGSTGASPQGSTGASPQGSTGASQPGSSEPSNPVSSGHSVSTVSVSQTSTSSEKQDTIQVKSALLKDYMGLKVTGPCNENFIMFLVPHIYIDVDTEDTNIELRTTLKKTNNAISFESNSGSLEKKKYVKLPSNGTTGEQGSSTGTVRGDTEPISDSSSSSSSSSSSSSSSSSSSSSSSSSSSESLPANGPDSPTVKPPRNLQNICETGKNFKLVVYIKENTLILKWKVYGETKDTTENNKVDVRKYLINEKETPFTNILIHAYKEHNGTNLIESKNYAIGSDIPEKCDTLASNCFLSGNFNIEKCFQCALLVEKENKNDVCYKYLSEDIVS

With “Vitronectin (VTN), human (natural protein)” the KD1 (bivalent analyte model, first interaction) [1] was 3.7 nM, the ka1 (bivalent analyte model, first interaction) [1] was 550000 M⁻¹ s⁻¹ and the kd1 (bivalent analyte model, first interaction) [1] was 0.002 s⁻¹.

B1: Vitronectin (protein)
chain: ATWLSLFSSEESNLGANNYDDYRMDWLVPATCEPIQSVFFFSGDKYYRVNLRTRRVDTVDPPYPRSIAQYWLGCPAPGHL
B1 gave a Kd (SERA5 SE36) of 3.7 nM.

— article PMC5864917 (2018)
